{"source": "patent US20190263882A1", "about": "(Scripps Research, published 2019)", "key": {"RSV F protein [1]": {"target": "T1, RSV F protein (UniProt P03420 26-524)", "T1 sequence (P03420 26-524)": "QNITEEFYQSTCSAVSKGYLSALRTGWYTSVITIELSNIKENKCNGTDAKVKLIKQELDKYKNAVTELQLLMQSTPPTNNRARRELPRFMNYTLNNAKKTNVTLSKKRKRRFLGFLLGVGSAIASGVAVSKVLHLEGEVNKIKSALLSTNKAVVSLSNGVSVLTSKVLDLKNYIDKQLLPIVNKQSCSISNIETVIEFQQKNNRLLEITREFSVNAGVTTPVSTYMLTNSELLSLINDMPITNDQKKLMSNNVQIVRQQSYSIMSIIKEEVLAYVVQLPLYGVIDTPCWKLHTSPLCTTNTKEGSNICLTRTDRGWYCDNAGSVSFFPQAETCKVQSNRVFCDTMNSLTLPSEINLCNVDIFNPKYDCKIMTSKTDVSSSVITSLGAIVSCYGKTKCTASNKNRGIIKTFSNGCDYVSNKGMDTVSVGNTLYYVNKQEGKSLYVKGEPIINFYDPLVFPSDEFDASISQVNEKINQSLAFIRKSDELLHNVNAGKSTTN", "assay": "ELISA, 100 ng/well RSV F protein coated, HRP anti-human IgG (Fc specific), QuantaBlu fluorescence (10 min)", "protocol": "Optimized palivizumab-relaxin fusion protein antibodies were tested for binding to RSV by ELISA assay. 100 ng/well RSV F protein was coated on 96-well plate in PBS 4° C. overnight. The plate was blocked with 2% BSA/PBS at room temperature for 1 hr, then washed twice with 200 μL PBS. The fusion antibodies were incubated at various concentrations (as indicated in FIG. 4) in 2% BSA/PBS at room temperature for 1 hr. Plates were washed with PBS (0.025% Tween-20 in PBS) four times and washed with PBS one time. […] Binding was quantified using Spectramax fluorescence plate reader with excitation at 325 nm and emission at 420 nm. Binding Kd values were determined (Table 14)."}, "relaxin receptor (LGR7)": {"target": "T2, relaxin receptor (LGR7)", "T2 sequence (Q9HBX9 whole entry, species assumed, looked up)": "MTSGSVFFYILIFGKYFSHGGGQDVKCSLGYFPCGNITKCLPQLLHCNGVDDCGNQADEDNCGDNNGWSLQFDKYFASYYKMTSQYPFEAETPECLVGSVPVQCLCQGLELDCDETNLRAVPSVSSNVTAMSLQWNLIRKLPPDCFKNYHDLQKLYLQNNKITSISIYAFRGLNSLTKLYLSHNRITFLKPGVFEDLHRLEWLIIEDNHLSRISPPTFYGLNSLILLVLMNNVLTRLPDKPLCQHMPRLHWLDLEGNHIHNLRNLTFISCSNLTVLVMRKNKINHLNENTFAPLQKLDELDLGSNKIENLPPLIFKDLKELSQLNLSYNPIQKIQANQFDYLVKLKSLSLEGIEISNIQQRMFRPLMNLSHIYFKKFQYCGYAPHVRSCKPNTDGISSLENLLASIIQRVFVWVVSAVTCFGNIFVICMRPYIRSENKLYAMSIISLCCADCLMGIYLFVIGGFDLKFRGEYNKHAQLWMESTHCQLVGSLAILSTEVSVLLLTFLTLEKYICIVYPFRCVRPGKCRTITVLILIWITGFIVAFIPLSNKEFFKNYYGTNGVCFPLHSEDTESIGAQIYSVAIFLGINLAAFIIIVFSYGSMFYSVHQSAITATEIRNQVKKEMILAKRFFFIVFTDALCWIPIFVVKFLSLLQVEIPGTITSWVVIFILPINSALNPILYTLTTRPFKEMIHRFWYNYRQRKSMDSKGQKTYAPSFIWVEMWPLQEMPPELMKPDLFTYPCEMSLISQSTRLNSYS", "assay": "cell-based or functional assay"}, "RSV F protein [2]": {"target": "T1, RSV F protein", "assay": "plate binding assay, RSV F protein coated, anti-human IgG (Fc specific) detection, fluorescence read at 25 min"}, "RSV F protein [3]": {"target": "T1, RSV F protein", "assay": "plate binding assay, RSV F protein coated, anti-human IgG (Fc specific) detection, fluorescence read at 50 min"}}, "data": [{"binder": "RLX304 (antibody, human IgG1, kappa) heavy: DSWMEEVIKLCGRELVRAQIAICGMSTWSGGGGSGGGGQLYSALANKCCHVGCTKRSLARFCGGGGSGGGGSGGGGSGQVTLRESGPALVKPTQTLTLTCTFSGFSLSTSGMSVGWIRQPPGKALEWLADIWWDDKKDYNPSLKSRLTISKDTSKNQVVLKVTNMDPADTATYYCARSMITNAYFDVWGAGTTVTVSSASTKGPSVFPLAPSSKSTSGGTAALGCLVKDYFPEPVTVSWNSGALTSGVHTFPAVLQSSGLYSLSSVVTVPSSSLGTQTYICNVNHKPSNTKVDKKVEPKSCDKTHTCPPCPAPPVAGPSVFLFPPKPKDTLMISRTPEVTCVVVDVSHEDPEVKFNWYVDGVEVHNAKTKPREEQYNSTYRVVSVLTVLHQDWLNGKEYKCKVSNKGLPSSIEKTISKAKGQPREPQVYTLPPSRDELTKNQVSLTCLVKGFYPSDIAVEWESNGQPENNYKTTPPVLDSDGSFFLYSKLTVDKSRWQQGNVFSCSVMHEALHNHYTQKSLSLSPGK light: DIQMTQSPSTLSASVGDRVTITCKCQLSVGYMHWYQQKPGKAPKLLIYDTSKLASGVPSRFSGSGSGTAFTLTISSLQPDDFATYYCFQGSGYPFTFGGGTKLEIKRTVAAPSVFIFPPSDEQLKSGTASVVCLLNNFYPREAKVQWKVDNALQSGNSQESVTEQDSKDSTYSLSSTLTLSKADYEKHKVYACEVTHQGLSSPVTKSFNRGEC", "values": [{"measurement": "Kd", "setting": "RSV F protein [1]", "result": 38.2, "unit": "nM"}, {"measurement": "EC50, CRE-luciferase reporter assay", "setting": "relaxin receptor (LGR7)", "result": 0.078, "unit": "nM"}]}, {"binder": "Palivizumab null (antibody, human IgG1, kappa, also called null palivizumab antibody) heavy: QVTLRESGPALVKPTQTLTLTCTFSGFSLSTSGMSVGWIRQPPGKALEWLADIWWDDKKDYNPSLKSRLTISKDTSKNQVVLKVTNMDPADTATYYCARSMITNWYFDVWGAGTTVTVSSASTKGPSVFPLAPSSKSTSGGTAALGCLVKDYFPEPVTVSWNSGALTSGVHTFPAVLQSSGLYSLSSVVTVPSSSLGTQTYICNVNHKPSNTKVDKKVEPKSCDKTHTCPPCPAPPVAGPSVFLFPPKPKDTLMISRTPEVTCVVVDVSHEDPEVKFNWYVDGVEVHNAKTKPREEQYNSTYRVVSVLTVLHQDWLNGKEYKCKVSNKGLPSSIEKTISKAKGQPREPQVYTLPPSRDELTKNQVSLTCLVKGFYPSDIAVEWESNGQPENNYKTTPPVLDSDGSFFLYSKLTVDKSRWQQGNVFSCSVMHEALHNHYTQKSLSLSPGK light: DIQMTQSPSTLSASVGDRVTITCKCQLSVGYMHWYQQKPGKAPKLLIYDTSKLASGVPSRFSGSGSGTEFTLTISSLQPDDFATYYCFQGSGYPFTFGGGTKLEIKRTVAAPSVFIFPPSDEQLKSGTASVVCLLNNFYPREAKVQWKVDNALQSGNSQESVTEQDSKDSTYSLSSTLTLSKADYEKHKVYACEVTHQGLSSPVTKSFNRGEC", "values": [{"measurement": "Kd", "setting": "RSV F protein [2]", "result": 0.8, "unit": "nM"}, {"measurement": "Kd", "setting": "RSV F protein [3]", "result": 0.49, "unit": "nM"}]}, {"binder": "RLX300 (no mutations) (antibody, human IgG1, kappa, also called SC3.s) heavy: DSWMEEVIKLCGRELVRAQIAICGMSTWSGGGGSGGGGQLYSALANKCCHVGCTKRSLARFCGGGGSGGGGSGGGGSGQVTLRESGPALVKPTQTLTLTCTFSGFSLSTSGMSVGWIRQPPGKALEWLADIWWDDKKDYNPSLKSRLTISKDTSKNQVVLKVTNMDPADTATYYCARSMITNWYFDVWGAGTTVTVSSASTKGPSVFPLAPSSKSTSGGTAALGCLVKDYFPEPVTVSWNSGALTSGVHTFPAVLQSSGLYSLSSVVTVPSSSLGTQTYICNVNHKPSNTKVDKKVEPKSCDKTHTCPPCPAPPVAGPSVFLFPPKPKDTLMISRTPEVTCVVVDVSHEDPEVKFNWYVDGVEVHNAKTKPREEQYNSTYRVVSVLTVLHQDWLNGKEYKCKVSNKGLPSSIEKTISKAKGQPREPQVYTLPPSRDELTKNQVSLTCLVKGFYPSDIAVEWESNGQPENNYKTTPPVLDSDGSFFLYSKLTVDKSRWQQGNVFSCSVMHEALHNHYTQKSLSLSPGK light: DIQMTQSPSTLSASVGDRVTITCKCQLSVGYMHWYQQKPGKAPKLLIYDTSKLASGVPSRFSGSGSGTAFTLTISSLQPDDFATYYCFQGSGYPFTFGGGTKLEIKRTVAAPSVFIFPPSDEQLKSGTASVVCLLNNFYPREAKVQWKVDNALQSGNSQESVTEQDSKDSTYSLSSTLTLSKADYEKHKVYACEVTHQGLSSPVTKSFNRGEC", "values": [{"measurement": "Kd", "setting": "RSV F protein [1]", "result": 0.301, "unit": "nM"}]}, {"binder": "RLX306 (antibody) heavy: DSWMEEVIKLCGRELVRAQIAICGMSTWSGGGGSGGGGQLYSALANKCCHVGCTKRSLARFCGGGGSGGGGSGGGGSGQVTLRESGPALVKPTQTLTLTCTFSGFSLSTSGMSVGWIRQPPGKALEWLADIWWDDKKDYNPSLKSRLTISKDTSKNQVVLKVTNMDPADTATYYCARSMITNAYFDVWGAGTTVTVSSASTKGPSVFPLAPSSKSTSGGTAALGCLVKDYFPEPVTVSWNSGALTSGVHTFPAVLQSSGLYSLSSVVTVPSSSLGTQTYICNVNHKPSNTKVDKKVEPKSCDKTHTCPPCPAPPVAGPSVFLFPPKPKDTLMISRTPEVTCVVVDVSHEDPEVKFNWYVDGVEVHNAKTKPREEQYNSTYRVVSVLTVLHQDWLNGKEYKCKVSNKGLPSSIEKTISKAKGQPREPQVYTLPPSRDELTKNQVSLTCLVKGFYPSDIAVEWESNGQPENNYKTTPPVLDSDGSFFLYSKLTVDKSRWQQGNVFSCSVMHEALHNHYTQKSLSLSPGK light: DIQMTQSPSTLSASVGDRVTITCKCQLSVGYMHWYQQKPGKAPKLLIYDTSKLASGVPSRFSGSGSGTAFTLTISSLQPDDFATYYCFQGNGYPFTFGGGTKLEIKRTVAAPSVFIFPPSDEQLKSGTASVVCLLNNFYPREAKVQWKVDNALQSGNSQESVTEQDSKDSTYSLSSTLTLSKADYEKHKVYACEVTHQGLSSPVTKSFNRGEC", "values": [{"measurement": "Kd", "setting": "RSV F protein [1]", "result": 82.7, "unit": "nM"}]}, {"binder": "RLX301 (antibody, human IgG1, kappa) heavy: DSWMEEVIKLCGRELVRAQIAICGMSTWSGGGGSGGGGQLYSALANKCCHVGCTKRSLARFCGGGGSGGGGSGGGGSGQVTLRESGPALVKPTQTLTLTCTFSGFSLSTSGMSVGWIRQPPGKALEWLADIWWDDKKDYNPSLKSRLTISKDTSKNQVVLKVTNMDPADTATYYCARSMITFGGFDVWGAGTTVTVSSASTKGPSVFPLAPSSKSTSGGTAALGCLVKDYFPEPVTVSWNSGALTSGVHTFPAVLQSSGLYSLSSVVTVPSSSLGTQTYICNVNHKPSNTKVDKKVEPKSCDKTHTCPPCPAPPVAGPSVFLFPPKPKDTLMISRTPEVTCVVVDVSHEDPEVKFNWYVDGVEVHNAKTKPREEQYNSTYRVVSVLTVLHQDWLNGKEYKCKVSNKGLPSSIEKTISKAKGQPREPQVYTLPPSRDELTKNQVSLTCLVKGFYPSDIAVEWESNGQPENNYKTTPPVLDSDGSFFLYSKLTVDKSRWQQGNVFSCSVMHEALHNHYTQKSLSLSPGK light: DIQMTQSPSTLSASVGDRVTITCKCQLSVGYMHWYQQKPGKAPKLLIYDTSKLASGVPSRFSGSGSGTAFTLTISSLQPDDFATYYCFQGSGYPFTFGGGTKLEIKRTVAAPSVFIFPPSDEQLKSGTASVVCLLNNFYPREAKVQWKVDNALQSGNSQESVTEQDSKDSTYSLSSTLTLSKADYEKHKVYACEVTHQGLSSPVTKSFNRGEC", "values": [{"measurement": "Kd", "setting": "RSV F protein [1]", "result": 79.3, "unit": "nM"}, {"measurement": "EC50, CRE-luciferase reporter assay", "setting": "relaxin receptor (LGR7)", "result": 0.072, "unit": "nM"}]}, {"binder": "RLX303 (antibody) heavy: DSWMEEVIKLCGRELVRAQIAICGMSTWSGGGGSGGGGQLYSALANKCCHVGCTKRSLARFCGGGGSGGGGSGGGGSGQVTLRESGPALVKPTQTLTLTCTFSGFSLSTSGMSVGWIRQPPGKALEWLADIWWDDKKDYNPSLKSRLTISKDTSKNQVVLKVTNMDPADTATYYCARSMITFGGFDVWGAGTTVTVSSASTKGPSVFPLAPSSKSTSGGTAALGCLVKDYFPEPVTVSWNSGALTSGVHTFPAVLQSSGLYSLSSVVTVPSSSLGTQTYICNVNHKPSNTKVDKKVEPKSCDKTHTCPPCPAPPVAGPSVFLFPPKPKDTLMISRTPEVTCVVVDVSHEDPEVKFNWYVDGVEVHNAKTKPREEQYNSTYRVVSVLTVLHQDWLNGKEYKCKVSNKGLPSSIEKTISKAKGQPREPQVYTLPPSRDELTKNQVSLTCLVKGFYPSDIAVEWESNGQPENNYKTTPPVLDSDGSFFLYSKLTVDKSRWQQGNVFSCSVMHEALHNHYTQKSLSLSPGK light: DIQMTQSPSTLSASVGDRVTITCKCQLSVGYMHWYQQKPGKAPKLLIYDTSKLASGVPSRFSGSGSGTAFTLTISSLQPDDFATYYCFQGNGYPFTFGGGTKLEIKRTVAAPSVFIFPPSDEQLKSGTASVVCLLNNFYPREAKVQWKVDNALQSGNSQESVTEQDSKDSTYSLSSTLTLSKADYEKHKVYACEVTHQGLSSPVTKSFNRGEC", "values": [{"measurement": "Kd", "setting": "RSV F protein [1]", "result": 52.1, "unit": "nM"}]}, {"binder": "RLX305 (antibody) heavy: DSWMEEVIKLCGRELVRAQIAICGMSTWSGGGGSGGGGQLYSALANKCCHVGCTKRSLARFCGGGGSGGGGSGGGGSGQVTLRESGPALVKPTQTLTLTCTFSGFSLSTSGMSVGWIRQPPGKALEWLADIWWDDKKDYNPSLKSRLTISKDTSKNQVVLKVTNMDPADTATYYCARSMITNAYFDVWGAGTTVTVSSASTKGPSVFPLAPSSKSTSGGTAALGCLVKDYFPEPVTVSWNSGALTSGVHTFPAVLQSSGLYSLSSVVTVPSSSLGTQTYICNVNHKPSNTKVDKKVEPKSCDKTHTCPPCPAPPVAGPSVFLFPPKPKDTLMISRTPEVTCVVVDVSHEDPEVKFNWYVDGVEVHNAKTKPREEQYNSTYRVVSVLTVLHQDWLNGKEYKCKVSNKGLPSSIEKTISKAKGQPREPQVYTLPPSRDELTKNQVSLTCLVKGFYPSDIAVEWESNGQPENNYKTTPPVLDSDGSFFLYSKLTVDKSRWQQGNVFSCSVMHEALHNHYTQKSLSLSPGK light: DIQMTQSPSTLSASVGDRVTITCKCQLSVGYMHWYQQKPGKAPKLLIYDTSKLASGVPSRFSGSGSGTAFTLTISSLQPDDFATYYCFQYSGYPFTFGGGTKLEIKRTVAAPSVFIFPPSDEQLKSGTASVVCLLNNFYPREAKVQWKVDNALQSGNSQESVTEQDSKDSTYSLSSTLTLSKADYEKHKVYACEVTHQGLSSPVTKSFNRGEC", "values": [{"measurement": "Kd", "setting": "RSV F protein [1]", "result": 75.2, "unit": "nM"}]}]}
